Here are results for 2 molecules from PMC10641069, “Intra- and inter-molecular regulation by intrinsically-disordered regions governs PUF protein RNA binding” (Nature Communications, 2023).

“And” between values parts separate entries of the source, which are not always exact repeats. Equal entries are not always repeated. “Also recorded” adds a separate entry of the source. Where two headings read alike, the source gives them in different places.

Broadly, the Kd is the constant that tells how readily two partners part at equilibrium.

The target of one experiment is T1, FBF-2 RBD (Caenorhabditis elegans, UniProt Q09312).
T1 construct: The FBF-2 RBD protein (residue 164-575) was purified as described previously; His6-SUMO (N, cleaved yes); made in house; host or cells: E. coli BL21-CodonPlus (DE3)-RIL (host inferred: b50 says the procedure was otherwise the same as for RBD + CT)
T1 sequence (Q09312 whole entry, looked up): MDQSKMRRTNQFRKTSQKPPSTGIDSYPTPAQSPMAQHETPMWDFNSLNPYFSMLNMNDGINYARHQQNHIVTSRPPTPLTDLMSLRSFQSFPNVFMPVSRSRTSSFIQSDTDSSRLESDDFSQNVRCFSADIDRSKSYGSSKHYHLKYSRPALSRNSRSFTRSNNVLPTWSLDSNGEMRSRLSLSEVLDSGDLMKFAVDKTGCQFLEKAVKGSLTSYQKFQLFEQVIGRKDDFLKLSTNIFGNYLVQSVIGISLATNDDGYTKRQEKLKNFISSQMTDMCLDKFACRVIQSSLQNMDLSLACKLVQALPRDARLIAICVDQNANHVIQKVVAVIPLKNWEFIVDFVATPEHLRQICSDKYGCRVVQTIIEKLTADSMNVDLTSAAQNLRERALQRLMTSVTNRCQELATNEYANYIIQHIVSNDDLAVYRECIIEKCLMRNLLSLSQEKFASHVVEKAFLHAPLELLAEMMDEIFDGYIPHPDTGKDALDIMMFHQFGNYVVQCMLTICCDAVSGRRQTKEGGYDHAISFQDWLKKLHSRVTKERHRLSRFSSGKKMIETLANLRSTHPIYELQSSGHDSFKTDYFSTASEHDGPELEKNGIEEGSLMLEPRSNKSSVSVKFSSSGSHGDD
It is filed as binding, C. elegans. The following applies: mean of two independent replicates, 20 °C, 20 mM HEPES pH 7.4, 150 mM NaCl, 0.5 mM TCEP, one-site model. As to the method:
To assess that idea, we investigated how the CT affects the protein interaction affinities of the FBF-2 RBD to LST-1 A and LST-1 B, using isothermal titration calorimetry (ITC, Supplementary Table 3). No RNA was included in these experiments.
Experiments were performed at 20 °C using a MicroCal PEAQ-ITC Automated (Malvern Instruments) with a 200-μL standard cell and a 40-μL titration syringe. FBF-2 and LST-1 variants were prepared in a buffer of 20 mM HEPES pH 7.4, 150 mM NaCl, and 0.5 mM TCEP by gel filtration. LST-1 (100–400 µM) was titrated from the syringe into the cell containing FBF-2 (10–30 µM) in 2 µl aliquots. Experiments were performed in duplicate due to the limitation of the amount of protein needed. Data were analyzed using the MicroCal PEAQ-ITC Analysis Software (version 1.40) provided by the manufacturer with the one-site model (Table S3).
Supplementary Table 3. Protein interaction affinities, stoichiometries, and thermodynamic parameters between FBF-2 CT/LST-1 variants and FBF-2 measured by ITC. Two technical replicates (n=2 independent experiments) were performed for each analysis with similar results, and the values are shown for each replicate. Source data are provided as a Source Data file. […]
RBD+CT LST-1 A none Not detected
RBD FBF-2 CT none Not detected
1 Reported previously 18.

For experiment [1], the target named is T2, FBF-2 RBD + CT (FBF-2 residues 164-632) (C. elegans, UniProt Q09312 164-632).
T2 sequence (looked up): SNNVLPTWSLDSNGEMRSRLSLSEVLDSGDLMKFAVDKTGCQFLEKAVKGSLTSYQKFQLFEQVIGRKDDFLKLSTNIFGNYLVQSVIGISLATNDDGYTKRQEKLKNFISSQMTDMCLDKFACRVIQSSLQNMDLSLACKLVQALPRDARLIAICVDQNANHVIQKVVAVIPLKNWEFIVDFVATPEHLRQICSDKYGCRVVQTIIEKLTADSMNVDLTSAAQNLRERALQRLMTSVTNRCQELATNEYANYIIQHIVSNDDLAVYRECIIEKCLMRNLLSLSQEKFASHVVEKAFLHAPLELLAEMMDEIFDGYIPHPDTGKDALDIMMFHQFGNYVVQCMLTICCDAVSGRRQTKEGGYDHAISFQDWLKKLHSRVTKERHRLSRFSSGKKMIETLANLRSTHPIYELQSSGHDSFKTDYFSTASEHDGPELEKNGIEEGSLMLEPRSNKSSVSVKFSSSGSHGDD
Kind of experiment: cell-based or functional assay.

In experiment [2] the target is T3, FBF-2 RBD (FBF-2 residues 164-575) (C. elegans, UniProt Q09312 164-575).
T3 chain: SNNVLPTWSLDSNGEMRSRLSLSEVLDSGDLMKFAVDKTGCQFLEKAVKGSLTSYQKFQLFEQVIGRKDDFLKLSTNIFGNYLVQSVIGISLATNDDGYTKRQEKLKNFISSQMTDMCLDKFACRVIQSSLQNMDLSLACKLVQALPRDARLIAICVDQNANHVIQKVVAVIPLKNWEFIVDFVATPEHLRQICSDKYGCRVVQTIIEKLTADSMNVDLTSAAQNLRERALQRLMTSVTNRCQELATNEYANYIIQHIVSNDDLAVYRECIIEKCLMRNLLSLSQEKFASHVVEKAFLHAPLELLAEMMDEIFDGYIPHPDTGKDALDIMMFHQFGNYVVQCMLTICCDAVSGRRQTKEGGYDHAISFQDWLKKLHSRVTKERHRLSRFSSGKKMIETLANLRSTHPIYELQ
Kind of experiment: ITC. In general terms: Isothermal titration calorimetry measures the heat released or taken up as one component is titrated into another.

In experiment [3] the target is T4, FBF-2 RBD + CT L610A (C. elegans, UniProt Q09312 164-632, L610A).
T4 sequence: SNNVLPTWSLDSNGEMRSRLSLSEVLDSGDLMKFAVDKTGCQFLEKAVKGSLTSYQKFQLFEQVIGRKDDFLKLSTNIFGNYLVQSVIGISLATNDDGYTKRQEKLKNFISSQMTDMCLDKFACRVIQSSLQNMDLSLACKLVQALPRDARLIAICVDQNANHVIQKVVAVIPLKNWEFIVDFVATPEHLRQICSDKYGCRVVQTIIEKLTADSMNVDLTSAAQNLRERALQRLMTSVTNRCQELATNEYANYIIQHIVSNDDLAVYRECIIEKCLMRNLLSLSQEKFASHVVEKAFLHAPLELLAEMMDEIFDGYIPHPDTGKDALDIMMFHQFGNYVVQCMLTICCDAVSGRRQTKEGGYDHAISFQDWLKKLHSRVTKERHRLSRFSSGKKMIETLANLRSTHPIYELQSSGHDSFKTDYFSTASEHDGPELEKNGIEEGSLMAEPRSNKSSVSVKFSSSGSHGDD
Kind of experiment: ITC.

In experiment [4] the target is T3, FBF-2 RBD (FBF-2 residues 164-575). Kind of experiment: ITC.
For experiment [5], the target named is T5, FBF-2 RBD + CT L610A (C. elegans, UniProt Q09312 164-632, L610A).
T5 construct: source: E. coli, expressed and purified like wild type proteins; not shown: His6-SUMO, N-terminal, cleaved
T5 sequence (looked up): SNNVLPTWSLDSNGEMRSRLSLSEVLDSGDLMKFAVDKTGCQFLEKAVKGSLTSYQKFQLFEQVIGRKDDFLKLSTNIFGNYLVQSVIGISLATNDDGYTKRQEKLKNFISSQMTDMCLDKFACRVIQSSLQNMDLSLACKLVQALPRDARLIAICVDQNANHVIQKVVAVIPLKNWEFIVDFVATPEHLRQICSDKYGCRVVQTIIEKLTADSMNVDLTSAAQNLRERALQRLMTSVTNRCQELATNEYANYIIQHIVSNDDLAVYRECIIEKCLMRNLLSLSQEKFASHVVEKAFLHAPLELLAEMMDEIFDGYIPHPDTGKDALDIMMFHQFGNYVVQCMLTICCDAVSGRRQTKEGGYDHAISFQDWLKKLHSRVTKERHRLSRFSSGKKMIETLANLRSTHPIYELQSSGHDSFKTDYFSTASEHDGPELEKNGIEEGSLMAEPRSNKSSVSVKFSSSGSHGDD
Briefly: ITC; peptide (100–400 µM) titrated from the syringe into the cell containing FBF-2 (10–30 µM); 20 °C; 20 mM HEPES pH 7.4, 150 mM NaCl, 0.5 mM TCEP; no RNA; one-site model; mean of two replicates. The settings on record: both partners purified.

As to “FBF-2 CT L610A: FBF-2 CT (601-632) with L610A (NGIEEGSLMAEPRSNKSSVSVKFSSSGSHGDD)”, the dissociation constant (Kd) result with FBF-2 RBD is given as “No binding; also recorded: Not detected”; with FBF-2 RBD (listed as CT peptide with L610A), “No binding was detected”.

B1: LST-1 A peptide (LST-1 residues 19-50) (peptide, UniProt P91820 19-50, looked up)
chain: STIAYSKSQHEAPKQLLQLRSEIKPLIPLNQP
notes: The tag was cleaved with Ulp1 protease; also called LST-1^19–50; source: E. coli, purified (Ni-NTA, HiTrap Q flow-through, Superdex 75); not shown: His6-SUMO, N-terminal, cleaved
As for B1, the “RNA-binding affinity of FBF-2 RBD + CT for gld-1 FBEa RNA by EMSA in the presence of 150 µM LST-1 A” value in experiment [1] came to 3 fold. The dissociation constant Kd in experiment [2] was 2100 nM; with FBF-2 RBD + CT L610A [3], 2100 nM and 2600 nM; in experiment [4], 2130 nM and 2020 nM; with FBF-2 RBD + CT L610A [5], 2400 nM.
